Numbered stars: 1 amine (or outer) side, 2 acyl side, 3 side chain; on linkers, the order of the positions; unused ones are H or OH. Square brackets hold non-standard residues; d marks the D form. Side chains are listed from the residue outwards. Ends that are not written are not given here. * marks the point of attachment. C18 diacid = O=C(O)CCCCCCCCCCCCCCCCC(=O)*; C16 diacid = O=C(O)CCCCCCCCCCCCCCC(=O)*; γGlu = O=C(O)[C@H](CCC(=O)[*:2])N[*:1]; Met(O2) = CS(=O)(=O)CC[C@H](N)C(=O)O; αMeD = C[C@](N)(CC(=O)O)C(=O)O; AEEA = NCCOCCOCC(=O)O; Aib = CC(C)(N)C(=O)O
Legend:
[1] = biological target: human Glucagon receptor (GCGR) (human, UniProt P47871 26-477); assay: cell-based or functional assay
[2] = biological target: human GLP-1 receptor (GLP1R) (human, UniProt P43220 24-463); assay: cell-based or functional assay

Sequence of human Glucagon receptor (GCGR) (P47871 26-477): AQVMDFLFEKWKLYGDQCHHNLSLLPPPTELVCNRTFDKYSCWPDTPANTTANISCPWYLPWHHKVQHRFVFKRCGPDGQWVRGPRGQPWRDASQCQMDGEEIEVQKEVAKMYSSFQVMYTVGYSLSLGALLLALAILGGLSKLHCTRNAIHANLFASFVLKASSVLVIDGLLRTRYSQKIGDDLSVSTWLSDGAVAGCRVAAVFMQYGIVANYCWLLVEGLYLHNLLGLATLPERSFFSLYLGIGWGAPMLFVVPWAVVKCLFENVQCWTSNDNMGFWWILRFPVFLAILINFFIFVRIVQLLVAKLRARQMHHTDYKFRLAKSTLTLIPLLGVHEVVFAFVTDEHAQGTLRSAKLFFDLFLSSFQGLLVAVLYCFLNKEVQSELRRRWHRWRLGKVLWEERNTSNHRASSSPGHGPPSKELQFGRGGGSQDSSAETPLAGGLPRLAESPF

B1: TP811 (peptide)
peptide: H[Aib]QGTFTSDYSKYLD[Aib]RAAQDFVK([AEEA-AEEA-γGlu-C16 diacid])WL[Met(O2)]DT-NH2
modifications: N-terminus assumed
SMILES: CC(C)C[C@H](NC(=O)[C@H](Cc1c[nH]c2ccccc12)NC(=O)[C@H](CCCCNC(=O)COCCOCCNC(=O)COCCOCCNC(=O)CC[C@H](NC(=O)CCCCCCCCCCCCCCC(=O)O)C(=O)O)NC(=O)[C@@H](NC(=O)[C@H](Cc1ccccc1)NC(=O)[C@H](CC(=O)O)NC(=O)[C@H](CCC(N)=O)NC(=O)[C@H](C)NC(=O)[C@H](C)NC(=O)[C@H](CCCNC(=N)N)NC(=O)C(C)(C)NC(=O)[C@H](CC(=O)O)NC(=O)[C@H](CC(C)C)NC(=O)[C@H](Cc1ccc(O)cc1)NC(=O)[C@H](CCCCN)NC(=O)[C@H](CO)NC(=O)[C@H](Cc1ccc(O)cc1)NC(=O)[C@H](CC(=O)O)NC(=O)[C@H](CO)NC(=O)[C@@H](NC(=O)[C@H](Cc1ccccc1)NC(=O)[C@@H](NC(=O)CNC(=O)[C@H](CCC(N)=O)NC(=O)C(C)(C)NC(=O)[C@@H](N)Cc1c[nH]cn1)[C@@H](C)O)[C@@H](C)O)C(C)C)C(=O)N[C@@H](CCS(C)(=O)=O)C(=O)N[C@@H](CC(=O)O)C(=O)N[C@H](C(N)=O)[C@@H](C)O
GCGR EC50 human [1]: 0.21 nM
GLP1R EC50 human [2]: 0.26 nM

B2: TP813 (peptide)
peptide: H[Aib]QGTFTSDYSKYLDARAAQEFVK([AEEA-AEEA-γGlu-C16 diacid])WL[Met(O2)]DT-NH2
modifications: N-terminus assumed
SMILES: CC(C)C[C@H](NC(=O)[C@H](Cc1ccc(O)cc1)NC(=O)[C@H](CCCCN)NC(=O)[C@H](CO)NC(=O)[C@H](Cc1ccc(O)cc1)NC(=O)[C@H](CC(=O)O)NC(=O)[C@H](CO)NC(=O)[C@@H](NC(=O)[C@H](Cc1ccccc1)NC(=O)[C@@H](NC(=O)CNC(=O)[C@H](CCC(N)=O)NC(=O)C(C)(C)NC(=O)[C@@H](N)Cc1c[nH]cn1)[C@@H](C)O)[C@@H](C)O)C(=O)N[C@@H](CC(=O)O)C(=O)N[C@@H](C)C(=O)N[C@@H](CCCNC(=N)N)C(=O)N[C@@H](C)C(=O)N[C@@H](C)C(=O)N[C@@H](CCC(N)=O)C(=O)N[C@@H](CCC(=O)O)C(=O)N[C@@H](Cc1ccccc1)C(=O)N[C@H](C(=O)N[C@@H](CCCCNC(=O)COCCOCCNC(=O)COCCOCCNC(=O)CC[C@H](NC(=O)CCCCCCCCCCCCCCC(=O)O)C(=O)O)C(=O)N[C@@H](Cc1c[nH]c2ccccc12)C(=O)N[C@@H](CC(C)C)C(=O)N[C@@H](CCS(C)(=O)=O)C(=O)N[C@@H](CC(=O)O)C(=O)N[C@H](C(N)=O)[C@@H](C)O)C(C)C
GCGR EC50 human [1]: 0.21 nM
GLP1R EC50 human [2]: 0.14 nM

B3: TP737 (peptide)
peptide: H[Aib]QGTFTSDYSKYLD[Aib]RAAQDFVK([AEEA-AEEA-γGlu-C18 diacid])WL[Met(O2)]DT-OH
modifications: N-terminus assumed
SMILES: CC(C)C[C@H](NC(=O)[C@H](Cc1c[nH]c2ccccc12)NC(=O)[C@H](CCCCNC(=O)COCCOCCNC(=O)COCCOCCNC(=O)CC[C@H](NC(=O)CCCCCCCCCCCCCCCCC(=O)O)C(=O)O)NC(=O)[C@@H](NC(=O)[C@H](Cc1ccccc1)NC(=O)[C@H](CC(=O)O)NC(=O)[C@H](CCC(N)=O)NC(=O)[C@H](C)NC(=O)[C@H](C)NC(=O)[C@H](CCCNC(=N)N)NC(=O)C(C)(C)NC(=O)[C@H](CC(=O)O)NC(=O)[C@H](CC(C)C)NC(=O)[C@H](Cc1ccc(O)cc1)NC(=O)[C@H](CCCCN)NC(=O)[C@H](CO)NC(=O)[C@H](Cc1ccc(O)cc1)NC(=O)[C@H](CC(=O)O)NC(=O)[C@H](CO)NC(=O)[C@@H](NC(=O)[C@H](Cc1ccccc1)NC(=O)[C@@H](NC(=O)CNC(=O)[C@H](CCC(N)=O)NC(=O)C(C)(C)NC(=O)[C@@H](N)Cc1c[nH]cn1)[C@@H](C)O)[C@@H](C)O)C(C)C)C(=O)N[C@@H](CCS(C)(=O)=O)C(=O)N[C@@H](CC(=O)O)C(=O)N[C@H](C(=O)O)[C@@H](C)O
GCGR EC50 human [1]: 1.56 nM
GLP1R EC50 human [2]: 2.67 nM

B4: TP736 (peptide)
peptide: H[Aib]QGTFTSDYSKYLDARAAK([AEEA-AEEA-γGlu-C18 diacid])DFVQWL[Met(O2)]DT-OH
modifications: N-terminus assumed
SMILES: CC(C)C[C@H](NC(=O)[C@H](Cc1ccc(O)cc1)NC(=O)[C@H](CCCCN)NC(=O)[C@H](CO)NC(=O)[C@H](Cc1ccc(O)cc1)NC(=O)[C@H](CC(=O)O)NC(=O)[C@H](CO)NC(=O)[C@@H](NC(=O)[C@H](Cc1ccccc1)NC(=O)[C@@H](NC(=O)CNC(=O)[C@H](CCC(N)=O)NC(=O)C(C)(C)NC(=O)[C@@H](N)Cc1c[nH]cn1)[C@@H](C)O)[C@@H](C)O)C(=O)N[C@@H](CC(=O)O)C(=O)N[C@@H](C)C(=O)N[C@@H](CCCNC(=N)N)C(=O)N[C@@H](C)C(=O)N[C@@H](C)C(=O)N[C@@H](CCCCNC(=O)COCCOCCNC(=O)COCCOCCNC(=O)CC[C@H](NC(=O)CCCCCCCCCCCCCCCCC(=O)O)C(=O)O)C(=O)N[C@@H](CC(=O)O)C(=O)N[C@@H](Cc1ccccc1)C(=O)N[C@H](C(=O)N[C@@H](CCC(N)=O)C(=O)N[C@@H](Cc1c[nH]c2ccccc12)C(=O)N[C@@H](CC(C)C)C(=O)N[C@@H](CCS(C)(=O)=O)C(=O)N[C@@H](CC(=O)O)C(=O)N[C@H](C(=O)O)[C@@H](C)O)C(C)C
GCGR EC50 human [1]: 3.19 nM
GLP1R EC50 human [2]: 1.15 nM

B5: TP812 (peptide)
peptide: H[Aib]QGTFTSDYSKYLDARAAK([AEEA-AEEA-γGlu-C16 diacid])EFVQWL[Met(O2)]DT-NH2
modifications: N-terminus assumed
SMILES: CC(C)C[C@H](NC(=O)[C@H](Cc1ccc(O)cc1)NC(=O)[C@H](CCCCN)NC(=O)[C@H](CO)NC(=O)[C@H](Cc1ccc(O)cc1)NC(=O)[C@H](CC(=O)O)NC(=O)[C@H](CO)NC(=O)[C@@H](NC(=O)[C@H](Cc1ccccc1)NC(=O)[C@@H](NC(=O)CNC(=O)[C@H](CCC(N)=O)NC(=O)C(C)(C)NC(=O)[C@@H](N)Cc1c[nH]cn1)[C@@H](C)O)[C@@H](C)O)C(=O)N[C@@H](CC(=O)O)C(=O)N[C@@H](C)C(=O)N[C@@H](CCCNC(=N)N)C(=O)N[C@@H](C)C(=O)N[C@@H](C)C(=O)N[C@@H](CCCCNC(=O)COCCOCCNC(=O)COCCOCCNC(=O)CC[C@H](NC(=O)CCCCCCCCCCCCCCC(=O)O)C(=O)O)C(=O)N[C@@H](CCC(=O)O)C(=O)N[C@@H](Cc1ccccc1)C(=O)N[C@H](C(=O)N[C@@H](CCC(N)=O)C(=O)N[C@@H](Cc1c[nH]c2ccccc12)C(=O)N[C@@H](CC(C)C)C(=O)N[C@@H](CCS(C)(=O)=O)C(=O)N[C@@H](CC(=O)O)C(=O)N[C@H](C(N)=O)[C@@H](C)O)C(C)C
GCGR EC50 human [1]: 0.2 nM
GLP1R EC50 human [2]: 0.088 nM

H[Aib]QGTFTSDYSKYLD[Aib]RAAK([AEEA-AEEA-γGlu-C20‑OH])DFVQWL[Met(O2)][αMeD]T-NH2 [TP588]
GCGR EC50 human [1]: 2.67 nM
GLP1R EC50 human [2]: 2.92 nM

— US20200270325A1 (Merck Sharp & Dohme, published 2020)
